The source of these data is patent US20170015742A1 (published 2017).

Residue numbers refer to the chain shown, from its start.

B1: BEW-9C2-D6 (antibody, IgG2b, V domains shown)
VH: QIQLVQSGPELKKPGESVKVSCKASGYTFTNYGIHWVKQAPGQGLQYVGWINTETGRPTYADDFKGRFVFFLETSASTAYLQINNLKNEDMATYFCARPLYYGYAHYFDYWGQGVMVTVSS
VL: DIQMTQSPASLSASLEEIVTITCQASQDIGNWLAWYQQKPGKSPQLLIYGATSLADGVPSRFSGSRSGTQYSLKISRLQVEDIGIYYCQQASSVTYTFGAGTKLELK
B2: hBDI-9E8.12 (antibody, V domains shown)
VH: EVQLVESGGGLVQPGGSLRLSCAFSGFSLSTYGMGVGWIRQAPGKGLEWLANIWWDDDKYYNPSLKNRLTISKDTSKNQAYLQINSLRAEDTAVYYCARIESIGTTYSFDYWGQGTLVTVSS
VL: DFQLTQSPSSLSASVGDRVTITCERSSGDIGDSYVSWYQQKPGKAPKNVIYADDQRPSGVPSRFSGSGSGNSASLTISSLQPEDFATYYCQSYDINIDIVFGQGTKVEIK
B3: hBDI-5H1.10 (antibody, V domains shown)
VH: EVTLRESGPALVKPTQTLTLTCTFSGFSLSTFGMGVGWIRQPPGKALEWLANIWWDDDKYYNPSLKNRLTISKDTSKNQAVLTITNMDPVDTATYYCARISTGISSYYVMDAWGQGTTVTVSS
VL: B2 VL with S33T, A52G, D53N, S74T, Y89F, I95S, N96D
B4: hBDI-5H1.13 (antibody, V domains shown)
VH: B3 VH with R5K
VL: B2 VL with S33T, A52G, D53N, S74T, Y89F, I95S, N96D
B5: hBDI-5H1.12 (antibody, V domains shown)
VH: EVQLVESGGGLVQPGGSLRLSCAFSGFSLSTFGMGVGWIRQAPGKGLEWLANIWWDDDKYYNPSLKNRLTISKDTSKNQAYLQINSLRAEDTAVYYCARISTGISSYYVMDAWGQGTLVTVSS
VL: B2 VL with S33T, A52G, D53N, S74T, Y89F, I95S, N96D
B6: hBDI-9E8.7 (antibody, V domains shown)
VH: EVTLRESGPALVKPTQTLTLTCTFSGFSLSTYGMGVGWIRQPPGKGLEWLANIWWDDDKYYNPSLKNRLTISKDTSKNQAVLTITNMDPVDTATYYCARIESIGTTYSFDYWGQGTMVTVSS
VL: EIVLTQSPGTLSLSPGERATLSCERSSGDIGDSYVSWYQQKPGQAPRLLIYADDQRPSGIPDRFSGSGSGTDFTLTISRLEPEDFAVYYCQSYDINIDIVFGGGTKVEIK
B7: hBDI-9E8.10 (antibody, V domains shown)
VH: B6 VH with G46A, M117T
VL: B2 VL
B8: hBDI-5H1.4 (antibody, V domains shown)
VH: B3 VH with A80V, I84M
VL: B6 VL with I2F, S33T, L49V, A52G, D53N, I95S, N96D
B9: hBDI-5H1.8 (antibody, V domains shown)
VH: B3 VH with R5K
VL: B6 VL with I2F, S33T, L49V, A52G, D53N, I95S, N96D
B10: hBDI-9E8.4 half body (other)
VH: B6 VH with G46A, A80V, I84M
VL: B6 VL with I2F, L49V
B11: hBDI-5H1.7 (antibody, V domains shown)
VH: B3 VH with R5K
VL: B6 VL with S33T, A52G, D53N, I95S, N96D
B12: hBDI-5H1.17 (antibody, V domains shown)
VH: B3 VH with R5K, A46G, K77N, N78S
VL: B6 VL with I2F, L49V
B13: hBDI-5H1.3 (antibody, V domains shown)
VH: B3 VH with A80V, I84M
VL: B6 VL with S33T, A52G, D53N, I95S, N96D
B14: hBDI-9E8.9 (antibody, V domains shown)
VH: B6 VH with G46A, M117T
VL: DFVLTQSPDSLAVSLGERATINCERSSGDIGDSYVSWYQQKPGQPPKNVIYADDQRPSGVPDRFSGSGSGNSASLTISSLQAEDVAVYFCQSYDINIDIVFGGGTKVEIK
B15: hBDI-9E8.8 (antibody, V domains shown)
VH: B6 VH
VL: B6 VL with I2F, L49V
B16: hBDI-5H1.11 (antibody, V domains shown)
VH: B5 VH
VL: B14 VL with S33T, A52G, D53N, S74T, I95S, N96D
B17: hBFU-3E2.1 (antibody, V domains shown)
VH: EVQLVQSGAEVKKPGSSVKVSCKASGYTFTESYMYWVKQAPGQGLELIGRIDPEDGSTDYVEKFKNKATLTADKSTSTAYMELSSLRSEDTAVYFCARFGARSYFYPMDAWGQGTTVTVSS
VL: ETVLTQSPATLSLSPGERATLSCRASESVSTLMHWYQQKPGQQPRLLIYGASNLESGVPARFSGSGSGTDFTLTISSLEPEDFAVYFCQQSWNDPWTFGGGTKVEIK
B18: hBFU-3E2.4 (antibody, V domains shown)
VH: B17 VH with K38R, K67R, A68V, F95Y
VL: ATQLTQSPSSLSASVGDRVTISCRASESVSTLMHWYQQKPGKQPRLLIYGASNLESGVPSRFSGSGSGTDFTLTISSLQPEDFATYFCQQSWNDPWTFGGGTKVEIK
B19: hBFU-3E2.2 (antibody, V domains shown)
VH: B17 VH with K38R, K67R, A68V, F95Y
VL: B17 VL
B20: hBFU-3E2.3 (antibody, V domains shown)
VH: B17 VH
VL: B18 VL
B21: hBDI-5H1.1 (antibody, V domains shown)
VH: B3 VH with A80V, I84M
VL: NFMLTQPHSVSESPGKTVTISCERSSGDIGDTYVSWYQQRPGSSPTTVIYGNDQRPSGVPDRFSGSIDSSSNSASLTISGLKTEDEADYYCQSYDSDIDIVFGGGTKLTVL
B22: hBDI-5H1.9 (antibody, V domains shown)
VH: B3 VH
VL: B14 VL with S33T, A52G, D53N, S74T, I95S, N96D
B23: hBDI-5H1.16 (antibody, V domains shown)
VH: B3 VH with R5K, A46G, K77N, N78S
VL: EFVLTQSPGTLSLSPGERATLSCERSSGDIGDTYVSWYQQKPGQPPRNVIYGNDQRPSGVPDRFSGSGSGTDFTLTISRLEPEDFAVYFCQSYDSDIDIVFGGGTKVEIK
B24: hBDI-5H1.6 (antibody, V domains shown)
VH: B3 VH with R5K
VL: B21 VL with S44P, T47N, Y90F
B25: hBDI-5H1.2 (antibody, V domains shown)
VH: B3 VH with A80V, I84M
VL: B21 VL with S44P, T47N, Y90F
B26: hBDI-5H1.5 (antibody, V domains shown)
VH: B3 VH with R5K
VL: B21 VL

For the first test, the target named is T1, Human VEGF-A 165 (human, UniProt P15692 207-395).
T1 construct: also called hVEGF165; huVEGF-A165
T1 sequence (P15692 other isoform, or with tags, fused parts or gaps limits assumed): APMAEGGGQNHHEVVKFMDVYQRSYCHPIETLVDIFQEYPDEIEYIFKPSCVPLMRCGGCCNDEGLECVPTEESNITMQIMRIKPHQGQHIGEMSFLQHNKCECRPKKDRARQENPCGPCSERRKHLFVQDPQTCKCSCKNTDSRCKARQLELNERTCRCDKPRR
In words: Biacore SPR (Example 1.1). The procedure: Unreacted moieties on the biosensor surface were blocked with ethanolamine. For kinetic analysis, rate equations derived from the 1:1 Langmuir binding model were fitted simultaneously to multiple antigen injections (using global fit analysis) with the use of Scrubber 2 (BioLogic Software), Biacore Biaevaluation 4.0.1 software or Biacore T100 Evaluation software. Purified antibodies or DVD-Ig molecules were diluted in running buffer for capture across goat anti-human Fc reaction surfaces. Antibodies or DVD-Ig molecules to be captured as a ligand (1 μg/ml) were injected over reaction matrices at a flow rate of 10 μl/minute. During the assay, all measurements were referenced against the capture surface alone (i.e., with no captured antibody or DVD-Ig molecule). […] The equilibrium dissociation constant KD (M) of the reaction between antibodies and the target antigen was then calculated from the kinetic rate constants by the following formula: KD=Koff/Kₒₙ. Binding was recorded as a function of time and kinetic rate constants were calculated. In this assay, on-rates as fast as 10⁶M⁻¹s⁻¹ and off-rates as slow as 10⁻⁶ s⁻¹ could be measured. […]
On the technique in general: Surface plasmon resonance follows binding to a sensor surface in real time, without labels.
With B1, the Kd is at most 0.00018 nM and the on-rate (kon) is 5.5e+06 M⁻¹ s⁻¹.

The target of the next test is recombinant human PDGF-BB (human, UniProt P01127 82-190). As to the kind of experiment: cell-based or functional assay.
Chain of recombinant human PDGF-BB (P01127 82-190 limits assumed): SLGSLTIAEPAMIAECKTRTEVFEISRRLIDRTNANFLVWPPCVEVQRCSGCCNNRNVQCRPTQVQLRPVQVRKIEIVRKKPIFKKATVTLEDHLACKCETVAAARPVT
B2: the “hPDGF-BB IC50 (nM), hPDGF-BB-induced NIH-3T3 cell proliferation” value (“hPDGF-BB IC50 (nM)” below) is 0.525 nM.
Regarding B3, the “hPDGF-BB IC50 (nM)” value is below 10 nM.
As for B4, the “hPDGF-BB IC50 (nM)” value is below 10 nM.
As to B5, the “hPDGF-BB IC50 (nM)” value was below 10 nM.
With B6, the “hPDGF-BB IC50 (nM)” value is 0.35 nM.
Same read-out and setting: the same measure for B7: 0.562 nM.
For B8, the “hPDGF-BB IC50 (nM)” value is below 10 nM.
On to B9, for which the “hPDGF-BB IC50 (nM)” value was below 10 nM.
As to B10, the “hPDGF-BB IC50 (nM)” value is above 5 nM.
Still for that read-out and setting: in the case of B11 it was below 10 nM.
Consider B12, for which the “hPDGF-BB IC50 (nM)” value is below 10 nM.
For the molecule B13, the “hPDGF-BB IC50 (nM)” value is below 10 nM.
Consider B14, for which the “hPDGF-BB IC50 (nM)” value amounted to 0.574 nM.
With B15, the “hPDGF-BB IC50 (nM)” value is 0.105 nM.
On the same count and under the same terms, in the case of B16 it was below 10 nM.
Consider B17, for which the “hPDGF-BB IC50 (nM)” value worked out at 0.183 nM.
As to B18, the “hPDGF-BB IC50 (nM)” value was determined as 0.571 nM.
With B19, the “hPDGF-BB IC50 (nM)” value was determined as 0.659 nM.
Regarding B20, the “hPDGF-BB IC50 (nM)” value amounted to 0.335 nM.
On the same count and under the same terms, the same measure for B21: below 10 nM.
B22: the “hPDGF-BB IC50 (nM)” value is below 10 nM.
Same read-out and setting: the same measure for B23: below 10 nM; for B24: below 10 nM.
Turning to B25, the “hPDGF-BB IC50 (nM)” value was below 10 nM.
With B26, the “hPDGF-BB IC50 (nM)” value was below 10 nM.

Usually Kd stands for the concentration at which binding is half-saturated. The kon is a measure of how fast the partners come together.
